Source: paper PMC12423496

Molecular target: T1, sHdrR-trunc (Hyphomicrobium denitrificans XT) (UniProt D8JT17)
T1 sequence: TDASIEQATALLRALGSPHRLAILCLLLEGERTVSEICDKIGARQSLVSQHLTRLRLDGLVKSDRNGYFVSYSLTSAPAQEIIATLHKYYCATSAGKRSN
Assay: EMSA
Settings: 10 mM Tris-HCl, 50 mM KCl, 1 mM DTT, pH 8.0 (1x of 10x buffer), about 7% glycerol; 20 min RT then 30 min at 30 C with 17 nM DNA; 6% native PAGE, 0.25x TBE, 4 C

Row | Sequence | binding
1 | TCGACAGCTTGCGGAAATCCGCAATCGAGATCGAAGCCATCGATCGTATTCGAATAGCACGTTCAGCTTCTGCGGAAGCGAACAACGCAACCGGCGCCAAGAGATAAATCTACATCGATCGTCGCGCCGGATGCGTTCACGTTGCCAAGGAATTCCTCACCGGCGGAGCCGTGGAATT (double strand) | no binding
2 | GGGTCACCAAATTCTGCAGGTCTCAATGCGAATGCGAGGCTGCTCCAGCTAGACGAAAAACAAGGAACGTTGCAATAGATAATTCACATATGATAATTTTCATATGTGTTATAGGATGAACGTTATCGCAGCTTCCGGGAGAGATGGCGTGAT (double strand) [soxA-soxY intergenic region] | binds
3 | CGGCCCTCTGAGAAAAGACGCACACGTCGCGCCAAAAACATATGAACATTCGCATGATGGAATATAACAGCCCTGCCGATCGCACAAGGCTCGCTTTAAACGCGGACGCGTCTTCGCAGCGCACACGCATGCGCTGGACGTCCGATCATGTGAAAATTGGGCTGAAGACTCGCTCTA (double strand) [upstream of lipS1] | binds
4 | TGCCACCTCCCCGATATGCGTGGCTTTTGTTGTTTTGCCACTTCAGTTCTTGTGTAACTTCCTCTTTAGAACCAGTCAATATTACATTCGCATGTTTGAATATTCCATTTTTCTATATGTTCATCGAATTGGAAAAGTTATTCAAATATATCGCGATCGATTGATCGGCGAAGTC (double strand) [upstream of dsrE3C] | binds
